Measurements: PMC8415317 (Genes & Development, 2021)
Residue numbers refer to the chain shown, from its start. Numbers in names are those of the source. Entries after “also recorded” stand apart in the source; their conditions may differ.

T1: TOFU-6 RRM (Caenorhabditis elegans, UniProt Q09293 1-99)
T1 sequence: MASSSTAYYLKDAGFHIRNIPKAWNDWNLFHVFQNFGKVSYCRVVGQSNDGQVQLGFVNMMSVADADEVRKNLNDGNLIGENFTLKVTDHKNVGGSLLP

T2: full-length TOST-1 (TOST-1^FL) (C. elegans, UniProt Q18490 1-142)
T2 sequence (looked up): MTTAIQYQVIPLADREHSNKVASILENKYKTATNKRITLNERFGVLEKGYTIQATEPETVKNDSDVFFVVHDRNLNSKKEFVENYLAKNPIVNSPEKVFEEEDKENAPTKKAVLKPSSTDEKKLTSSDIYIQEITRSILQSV

T3: PID-1-mVenus-Strep (C. elegans, UniProt Q19541 1-169)
T3 sequence (looked up): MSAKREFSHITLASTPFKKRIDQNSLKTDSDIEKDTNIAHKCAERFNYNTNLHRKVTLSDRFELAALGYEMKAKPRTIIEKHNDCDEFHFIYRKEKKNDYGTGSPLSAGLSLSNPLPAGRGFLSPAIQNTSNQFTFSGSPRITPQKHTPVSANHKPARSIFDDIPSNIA

T4: ERH-2 W87A (C. elegans, UniProt Q20057 1-113, W87A)
T4 sequence (looked up): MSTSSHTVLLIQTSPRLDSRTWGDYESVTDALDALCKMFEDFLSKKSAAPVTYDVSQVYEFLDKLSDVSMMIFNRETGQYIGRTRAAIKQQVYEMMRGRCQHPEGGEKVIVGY

T5: ERH-2 I81A/R83A (C. elegans, UniProt Q20057 1-113, I81A | R83A)
T5 sequence (looked up): T4 sequence (looked up) with I81A, R83A, A87W

T6: TOFU-6 (C. elegans, UniProt Q09293 1-367)
T6 sequence (looked up): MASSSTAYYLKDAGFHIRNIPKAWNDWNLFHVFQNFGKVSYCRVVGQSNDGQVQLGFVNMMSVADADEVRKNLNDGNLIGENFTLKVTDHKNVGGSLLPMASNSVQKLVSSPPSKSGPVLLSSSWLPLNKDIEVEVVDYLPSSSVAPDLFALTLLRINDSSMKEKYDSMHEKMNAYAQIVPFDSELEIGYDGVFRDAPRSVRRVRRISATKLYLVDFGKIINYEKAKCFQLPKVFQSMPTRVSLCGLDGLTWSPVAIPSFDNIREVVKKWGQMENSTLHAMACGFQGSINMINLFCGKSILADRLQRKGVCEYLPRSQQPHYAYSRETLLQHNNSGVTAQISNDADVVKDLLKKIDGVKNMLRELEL

T7: PID-3/ERH-2 subcomplex (C. elegans, UniProt O76616 1-307; Q20057 1-113)
T7 sequence (looked up) 1: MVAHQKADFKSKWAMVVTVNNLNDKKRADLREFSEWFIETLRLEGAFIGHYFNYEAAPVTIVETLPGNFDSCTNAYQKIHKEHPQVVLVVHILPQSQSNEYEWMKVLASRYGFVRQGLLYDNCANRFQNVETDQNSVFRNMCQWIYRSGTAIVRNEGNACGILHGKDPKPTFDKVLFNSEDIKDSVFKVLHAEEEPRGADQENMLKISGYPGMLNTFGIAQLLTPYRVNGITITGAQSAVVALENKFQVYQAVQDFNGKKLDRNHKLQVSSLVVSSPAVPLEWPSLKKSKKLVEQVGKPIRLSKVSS
T7 sequence (looked up) 2: T4 sequence (looked up) with A87W

B1: ^15N-labeled full-length ERH-2 (natural protein, C. elegans)
chain: GHMASMSTSSHTVLLIQTSPRLDSRTWGDYESVTDALDALCKMFEDFLSKKSAAPVTYDVSQVYEFLDKLSDVSMMIFNRETGQYIGRTRAWIKQQVYEMMRGRCQHPEGGEKVIVGY
B2: full-length ERH-2^FL (natural protein, C. elegans, UniProt Q20057 1-113, looked up)
chain: T4 sequence (looked up) with A87W
B3: PID-3 full-length (natural protein, C. elegans, UniProt O76616 1-307, looked up)
chain: T7 sequence (looked up) 1
B4: PID-3(A220E) (protein, UniProt O76616 1-307, looked up, variant A220E)
Protein pid-3: T7 sequence (looked up) 1 with A220E
B5: PID-3 (I182A and V186A) (protein, UniProt O76616 1-307, looked up, variant I182A V186A)
Protein pid-3: T7 sequence (looked up) 1 with I182A, V186A
B6: ERH-2^ΔC (domain or fragment, C. elegans, UniProt Q20057 1-99, looked up)
chain: MSTSSHTVLLIQTSPRLDSRTWGDYESVTDALDALCKMFEDFLSKKSAAPVTYDVSQVYEFLDKLSDVSMMIFNRETGQYIGRTRAWIKQQVYEMMRGR
B7: TOST-1-mVenus-Strep (natural protein, C. elegans, UniProt Q18490 1-142, looked up)
chain: T2 sequence (looked up)

Columns and labels:
[1] = molecular target: T1, TOFU-6 RRM; assay: fluorescence anisotropy
[2] = molecular target: T2, full-length TOST-1 (TOST-1^FL); assay: NMR titration
[3] = molecular target: T2, full-length TOST-1 (TOST-1^FL); assay: ITC
[4] = molecular target: T3, PID-1-mVenus-Strep; assay: pull-down
[5] = molecular target: B3; assay: SEC
[6] = molecular target: T4, ERH-2 W87A; assay: pull-down
[7] = molecular target: T5, ERH-2 I81A/R83A; assay: pull-down
[8] = molecular target: the molecule itself; assay: SEC-MALS
[9] = molecular target: T6, TOFU-6; assay: SEC-MALS
[10] = system: P granules (perinuclear foci); assay: Subcellular localization by confocal microscopy; assay type: in vivo, C. elegans; settings: GFP-tagged PID-3, 25°C
[11] = system: 21U RNA; assay: 21U RNA sequencing; assay type: in vivo, C. elegans; settings: small RNA-seq, 20°C and 25°C, n = 3, versus wild type
[12] = molecular target: the molecule itself; assay: crystal structure
[13] = molecular target: T7, PID-3/ERH-2 subcomplex; assay: pull-down

UUUUUUUUUUUUUUUU (ssRNA) [Cy5-U16] was tested, and the Kd [1] was ~60 µM.

B1: binds [2].

For B2, the Kd [3] was 13 µM, the binding result [4] was “binds” and the binding result [5] was “binds”.

TFDKVLFNSEDIKDSVFKVLHAEEEPRGADQEN (peptide, UniProt O76616 171-203, looked up) [GST-PID-3^pep]: binds [6]; binds [7].

B3: binds [8]; binds [9].

In the case of B4, the subcellular localization [10] is reported as “did not form perinuclear foci”.

With B5 the “21U RNA levels” value [11] was “temperature-sensitive effect on overall 21U RNA levels; also recorded: affect all 21U RNA species”.

B6: binds [12].

B7: binds [13].
